Reference: publication PMC10352297, “Determining the structure of the bacterial voltage-gated sodium channel NaChBac embedded in liposomes by cryo electron tomography and subtomogram averaging” (Scientific Reports, 2023)

Target: the molecule itself
Experiment: cryo-EM structure; cryo electron tomography and subtomogram averaging of NaChBac in proteoliposomes (E. coli polar lipid extract, lipid-to-protein 2:1 wt/wt); polarized membrane, [K+]in 150 mM, [K+]out 3 mM, 1 uM valinomycin, -100 mV; 25 mM HEPES pH 7.0; 3116 particles, C1, 16.3 A

B1: His6-GFP^A206K-NaChBac (natural protein, Bacillus halodurans, UniProt Q9KCR8 1-274, looked up)
chain: MKMEARQKQNSFTSKMQKIVNHRAFTFTVIALILFNALIVGIETYPRIYADHKWLFYRIDLVLLWIFTIEIAMRFLASNPKSAFFRSSWNWFDFLIVAAGHIFAGAQFVTVLRILRVLRVLRAISVVPSLRRLVDALVMTIPALGNILILMSIFFYIFAVIGTMLFQHVSPEYFGNLQLSLLTLFQVVTLESWASGVMRPIFAEVPWSWLYFVSFVLIGTFIIFNLFIGVIVNNVEKAELTDNEEDGEADGLKQEISALRKDVAELKSLLKQSK
notes: NaChBac, prokaryotic voltage-gated sodium channel from Bacillus halodurans; cDNA for full-length NaChBac in pET21a; the tagged subunit is 55 kDa; the channel without tags is about 120 kDa as a tetramer; also called his-GFP-NaChBac; his-tagged GFP^A206K-NaChBac; source: E. coli C41(DE3), purified (Ni-NTA, SEC in DDM), reconstituted into liposomes of E. coli polar lipid extract; not shown: His6, …
stoichiometry N: 4
